The test system of the series is MS2 coat protein. Put plainly: apparent KD of MS2 coat protein; designed switch direction (-1 OFF switch, 1 ON switch): -1; higher = weaker reporter binding. In a few lines:
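Stalled E. coli RNA polymerase transcribed designed RNA switches on Illumina chips, which were then titrated with SNAP-549-labelled MS2 coat protein, doubling from 0.7 or 1.5 nM to 3 µM. Steps lasted from 0.8–1.5 h at the lowest concentration to 10–20 min at the highest. The apparent KD is each design's median over clusters of curve-fitted normalised fluorescence.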

Setting [1] is: Eterna round: R95, input ligand: FMN 200 uM.
Setting [2] is: Eterna round: R95, input ligand: microRNA oligo, concentration not stated.
The mark [3] stands for this setting: Eterna round: R95, input ligand: none.
The mark [4] stands for this setting: input ligand: microRNA oligo, concentration not stated.

23 sequences from the supplement of paper PMC9170038 can be followed below.

As to “GAUUGACAUGAGGAUCACCCAUGUGAGGAUAUCGGCCGGACCGUGUUGGCUUCCGUCGCGAGAAGGCGCAUAGG [Exclusion 1 V39] (puzzle: Exclusion 1)”, the “apparent KD of MS2 coat protein” value under setting [1] was 0.173 µM, the “apparent KD of MS2 coat protein” value under setting [2] turned out to be 0.0822 µM and the “apparent KD of MS2 coat protein” value under setting [3] was 0.101 µM.

For the sequence “GAUUGACAUGAGGAUCACCCAUGUGAGGAUAUCGGCUGGACCGUGUUGGCUUCCGUUUCGAGAAGGCGCAUAGG [Exclusion 1 V44] (puzzle: Exclusion 1)”, the “apparent KD of MS2 coat protein” value under setting [2] worked out at 0.0232 µM.

Regarding “GAUUGCUCGUCUUGAAAACACAUGAGGAUCACCCAUGUAACUAGGGAAACCACGAUUAUAUUCGCUUUUCAGUGUAA [Eternabot (L2) Solution 2] (Eterna round: R97, puzzle: Sensor, turn-off variant 1)”, the “apparent KD of MS2 coat protein” value (input ligand: FMN 200 uM) turned out to be 0.0296 µM and the “apparent KD of MS2 coat protein” value (input ligand: none) is 0.0342 µM.

Take “GCAAGAAUAGGAUAUACAACAUGCCAGCUUCUUUACAACGCACAUGAGGAUCACCCAUGUAGAAGGGUUCUCUA [Exclusion-2-#13] (Eterna round: R97, puzzle: Exclusion 2)”: the “apparent KD of MS2 coat protein” value by setting is: (input ligand: FMN 200 uM) 0.209 µM; (input ligand: none) 0.261 µM.

On to “GCAAGAUUCUGAGGAUAUGCGCUACAUCCCACAGCAGAAGGCGGAAAUUGACUGACAUGAGGAUCACCCAUGUGAUCCGCUUUC [Eternabot solution 33] (Eterna round: R96, puzzle: Exclusion NG 1)”, for which the “apparent KD of MS2 coat protein” value turned out to be 0.0327 µM (input ligand: FMN 200 uM), 0.0212 µM under setting [4] and 0.0177 µM (input ligand: none).

Regarding “GCAAGCUUUUGCUCGUCUUACAUGAGGAUCACCCAUGUUGGGUCCGGUCGCCGCGGCCGGGCCGGCCGGGCGCCGGG [-38, -65.5 kcal, A 10%] (Eterna round: R97, puzzle: Sensor, turn-off variant 1)”, the “apparent KD of MS2 coat protein” value is 0.0312 µM (input ligand: FMN 200 uM) and 0.0333 µM (input ligand: none).

Consider “GCACGGAGUGUAGGAUAUCUGUGCGAUUAGCUCAGAGAAGGACACAUGAGGAUCACCCAUGUGUUCCAGCGAAAGCUUCCGUGC [Eli exng1 - 047] (Eterna round: R96, puzzle: Exclusion NG 1)”, for which the “apparent KD of MS2 coat protein” value by setting is: (input ligand: FMN 200 uM) 0.00815 µM; under setting [4], 0.00932 µM; (input ligand: none) 0.0106 µM.

On to “GCACUGACAGGAUAUACAUGAGGAUCACCCAUGUGACCCUUAUAGUACUCGCGUACUAGUAGAAGGGUCUGUGC [Omei Ex3 Model Bachelor's Dilema v33] (Eterna round: R97, puzzle: Exclusion 3)”, for which the “apparent KD of MS2 coat protein” value reads like this: (input ligand: FMN 200 uM) 0.324 µM; (input ligand: none) 0.0594 µM.

As for “GCACUGGCAGGAUAUACAUGAGGAUCACCCAUGUGAUCCCUUAGGUACAAAAGUACUAGUAGAAGGGCCUGUGC [Omei Ex3 Model Bachelor's Dilema v48] (Eterna round: R97, puzzle: Exclusion 3)”, the “apparent KD of MS2 coat protein” value came to 0.294 µM (input ligand: FMN 200 uM) and 0.968 µM (input ligand: none).

Consider “GCAGCAUAGUAAACAUACUGUUACAUGAGGAUCACCCAUGUACAGGAUAUGGUCUGGAUUACAGGCCAGAAGGGUACAAGCUGC [Eli exng3 - 023] (Eterna round: R96, puzzle: Exclusion NG 3)”, for which the “apparent KD of MS2 coat protein” value came out at 0.00836 µM (input ligand: FMN 200 uM), 0.013 µM under setting [4] and 0.0128 µM (input ligand: none).

“GCAGCAUAGUUAACAUACUGUUACAUGAGGAUCACCCAUGUACAGGAUAUGGUCUGGAUUACAGGCCAGAAGGGUACAAGCUGC [Eli exng3 - 020] (Eterna round: R96, puzzle: Exclusion NG 3)”: the “apparent KD of MS2 coat protein” value amounted to 0.0107 µM (input ligand: FMN 200 uM), 0.0078 µM under setting [4] and 0.0126 µM (input ligand: none).

Regarding “GCAGGAUAAGUCAGGAUAUACCUAUGGAUACAUAGGUAGAAGGGACAUGAGGAUCACCCAUGUGACUCGCCUGC [Fiskers BMX 4 - 73] (puzzle: Brourd's mod of Exclusion 4)”, the “apparent KD of MS2 coat protein” value under setting [2] is 0.0276 µM.

Turning to “GCAGGAUAAGUCAGGAUAUACCUAUGGAUACAUAGGUAGAAGGGACAUGAGGAUCACCCAUGUUACUCGCCUGC [Fiskers BMX 4 - 74] (puzzle: Brourd's mod of Exclusion 4)”, the “apparent KD of MS2 coat protein” value under setting [2] amounted to 0.0136 µM.

As to “GCAGGCGUCUAGGCUCGUCUUAUUUUGAGAGGAUUGAUAACAUGAGGAUCACCCAUGUUUGUGGGAGAGUUGCAGUG [JR_SV3TOV2_Sub015] (puzzle: Sensor v3, turn-off variant 2)”, the “apparent KD of MS2 coat protein” value reads like this: under setting [1], 0.121 µM; under setting [2], 0.241 µM; under setting [3], 0.143 µM.

As to “GCAUCACAUGUCAGGAUAUGCUGUACCUUGGUACAGCAGAAGGGACAUGAGGAUCACCCAUGUGCCUAUGAUGC [JL-BMX4-4.11] (Eterna round: R97, puzzle: Brourd's mod of Exclusion 4)”, the “apparent KD of MS2 coat protein” value by setting is: (input ligand: FMN 200 uM) 0.555 µM; (input ligand: none) 0.0593 µM.

Take “GCAUCCAAUGUGAGGAUAUACCUCUGGAUACAGAGGUAGAAGGCACAUGAGGAUCACCCAUGUUACUAGGAUGC [Fiskers BMX 4 - 36] (puzzle: Brourd's mod of Exclusion 4)”: the “apparent KD of MS2 coat protein” value under setting [2] was 0.0193 µM.

Take “GCAUUGAGUGUGAGGAUAUGCUGGUCCUAAGAUCAGCAGAAGGCACAUGAGGAUCACCCAUGUGAAAACAAUGC [Mat - Exclusion 4 - JL Mod - D65] (puzzle: Brourd's mod of Exclusion 4)”: the “apparent KD of MS2 coat protein” value under setting [1] worked out at 0.102 µM, the “apparent KD of MS2 coat protein” value under setting [2] came out at 0.0152 µM and the “apparent KD of MS2 coat protein” value under setting [3] worked out at 0.0174 µM.

Consider “GCCAAUGACUGAGGAUAUGCUUAUAGACAUGAGGAUCACCCAUGUAAAUGGGACAUGUCAAACCAGCAGAAGGCAGGACCUGGC [Arused] (Eterna round: R96, puzzle: Exclusion NG 2)”, for which the “apparent KD of MS2 coat protein” value turned out to be 0.069 µM (input ligand: FMN 200 uM), 0.585 µM under setting [4] and 0.514 µM (input ligand: none).

For the sequence “GCCAGAGCAGGAUAUUCAAUAUGUCACAUGAGGAUCACCCAUGUCCAGCGAAAGCUGGAGGGAGAAGGGCUCUGGC [Fiskers Ex 5 - 18] (puzzle: Exclusion 5)”, the “apparent KD of MS2 coat protein” value stood at 0.0237 µM under setting [1], 0.0893 µM under setting [2] and 0.119 µM under setting [3].

Consider “GCCAGCGUAUAGGAUAUGGCCGGCUUUUGAGUACCAGAAGGAUACACAUGAGGAUCACCCAUGUGGCAUUCGUC [Eternabot (L2) Solution 71] (Eterna round: R97, puzzle: Exclusion 6)”, for which the “apparent KD of MS2 coat protein” value is 0.0205 µM (input ligand: FMN 200 uM) and 0.0147 µM (input ligand: none).

Turning to “GCCAUGUCAGGAUAUGCUUCAAAGCACGUACAGAGCUUGAAGUAGAAGGGACAUGAGGAUCACCCAUGUGCCUA [Eternabot (L1) Solution 80] (Eterna round: R97, puzzle: Exclusion 4)”, the “apparent KD of MS2 coat protein” value is, setting by setting: (input ligand: FMN 200 uM) 0.0402 µM; (input ligand: none) 0.02 µM.

On to “GCCCUCACAGUGAGGAUAUCUGAGCAUCCCGCUAAGGAGAAGGCACAUGAGGAUCACCCAUGUAAUUGGUUUAA [BmEX4 A.22] (Eterna round: R97, puzzle: Brourd's mod of Exclusion 4)”, for which the “apparent KD of MS2 coat protein” value came out at 0.124 µM (input ligand: FMN 200 uM) and 0.0398 µM (input ligand: none).

In the case of “GCCGAAAAUGUGAGGAUAUACCUAUGGAUACAUAGGUAGAAGGCACAUGAGGAUCACCCAUGUGUUUCAACGGC [Eli bmx4 4.21] (Eterna round: R97, puzzle: Brourd's mod of Exclusion 4)”, the “apparent KD of MS2 coat protein” value is, setting by setting: (input ligand: FMN 200 uM) 0.0948 µM; (input ligand: none) 0.0222 µM.
